Assay results published in US20260117202A1.
Several values for one entry are separate records, joined by “and”; a condition that tells them apart may be missing. Identical values can stand only once.

Tests used:
FHCS-4 (RSV strain A2) [1] = target: FHCS-4 (RSV strain A2) (UniProt P03420); experiment: ELISA; F coated 5000 ng/ml; stored -80° C.
FHCS-2 (RSV strain A2) [2] = target: FHCS-2 (RSV strain A2) (UniProt P03420); experiment: ELISA; F coated 5000 ng/ml; stored -80° C.
FHCS-1 (RSV strain A2) [3] = target: FHCS-1 (RSV strain A2) (UniProt P03420); experiment: ELISA; F coated 5000 ng/ml; stored -80° C.
FHCS-4 (RSV strain A2) [4] = target: FHCS-4 (RSV strain A2) (UniProt P03420); experiment: ELISA; F coated 5000 ng/ml; stored 37° C. 4 W
FHCS-2 (RSV strain A2) [5] = target: FHCS-2 (RSV strain A2) (UniProt P03420); experiment: ELISA; F coated 5000 ng/ml; stored 37° C. 4 W
FHCS-1 (RSV strain A2) [6] = target: FHCS-1 (RSV strain A2) (UniProt P03420); experiment: ELISA; F coated 5000 ng/ml; stored 37° C. 4 W
FHCS-4 (RSV strain A2) [7] = target: FHCS-4 (RSV strain A2) (UniProt P03420); experiment: ELISA; F coated 625 ng/ml; stored -80° C.
FHCS-2 (RSV strain A2) [8] = target: FHCS-2 (RSV strain A2) (UniProt P03420); experiment: ELISA; F coated 625 ng/ml; stored -80° C.
FHCS-1 (RSV strain A2) [9] = target: FHCS-1 (RSV strain A2) (UniProt P03420); experiment: ELISA; F coated 625 ng/ml; stored -80° C.
FHCS-4 (RSV strain A2) [10] = target: FHCS-4 (RSV strain A2) (UniProt P03420); experiment: ELISA; F coated 1250 ng/ml; stored -80° C.
FHCS-2 (RSV strain A2) [11] = target: FHCS-2 (RSV strain A2) (UniProt P03420); experiment: ELISA; F coated 1250 ng/ml; stored -80° C.
FHCS-1 (RSV strain A2) [12] = target: FHCS-1 (RSV strain A2) (UniProt P03420); experiment: ELISA; F coated 1250 ng/ml; stored -80° C.
FHCS-4 (RSV strain A2) [13] = target: FHCS-4 (RSV strain A2) (UniProt P03420); experiment: ELISA; F coated 156.3 ng/ml; stored 37° C. 2 W
FHCS-2 (RSV strain A2) [14] = target: FHCS-2 (RSV strain A2) (UniProt P03420); experiment: ELISA; F coated 156.3 ng/ml; stored 37° C. 2 W
FHCS-1 (RSV strain A2) [15] = target: FHCS-1 (RSV strain A2) (UniProt P03420); experiment: ELISA; F coated 156.3 ng/ml; stored 37° C. 2 W
FHCS-4 (RSV strain A2) [16] = target: FHCS-4 (RSV strain A2) (UniProt P03420); experiment: ELISA; F coated 1250 ng/ml; stored 37° C. 2 W
FHCS-2 (RSV strain A2) [17] = target: FHCS-2 (RSV strain A2) (UniProt P03420); experiment: ELISA; F coated 1250 ng/ml; stored 37° C. 2 W
FHCS-1 (RSV strain A2) [18] = target: FHCS-1 (RSV strain A2) (UniProt P03420); experiment: ELISA; F coated 1250 ng/ml; stored 37° C. 2 W
FHCS-4 (RSV strain A2) [19] = target: FHCS-4 (RSV strain A2) (UniProt P03420); experiment: ELISA; F coated 156.3 ng/ml; stored 37° C. 4 W
FHCS-2 (RSV strain A2) [20] = target: FHCS-2 (RSV strain A2) (UniProt P03420); experiment: ELISA; F coated 156.3 ng/ml; stored 37° C. 4 W
FHCS-1 (RSV strain A2) [21] = target: FHCS-1 (RSV strain A2) (UniProt P03420); experiment: ELISA; F coated 156.3 ng/ml; stored 37° C. 4 W
FHCS-4 (RSV strain A2) [22] = target: FHCS-4 (RSV strain A2) (UniProt P03420); experiment: ELISA; F coated 156.3 ng/ml; stored -80° C.
FHCS-2 (RSV strain A2) [23] = target: FHCS-2 (RSV strain A2) (UniProt P03420); experiment: ELISA; F coated 156.3 ng/ml; stored -80° C.
FHCS-4 (RSV strain A2) [24] = target: FHCS-4 (RSV strain A2) (UniProt P03420); experiment: ELISA; F coated 312.5 ng/ml; stored -80° C.
FHCS-2 (RSV strain A2) [25] = target: FHCS-2 (RSV strain A2) (UniProt P03420); experiment: ELISA; F coated 312.5 ng/ml; stored -80° C.
FHCS-1 (RSV strain A2) [26] = target: FHCS-1 (RSV strain A2) (UniProt P03420); experiment: ELISA; F coated 312.5 ng/ml; stored -80° C.
FHCS-4 (RSV strain A2) [27] = target: FHCS-4 (RSV strain A2) (UniProt P03420); experiment: ELISA; F coated 78.13 ng/ml; stored -80° C.
FHCS-2 (RSV strain A2) [28] = target: FHCS-2 (RSV strain A2) (UniProt P03420); experiment: ELISA; F coated 78.13 ng/ml; stored -80° C.

## AM14 monoclonal antibody
FHCS-4 (RSV strain A2) [1]
  OD value: 0.252 OD and 0.209 OD
FHCS-2 (RSV strain A2) [2]
  OD value: 0.985 OD and 0.796 OD
FHCS-1 (RSV strain A2) [3]
  OD value: 0.902 OD and 0.775 OD
FHCS-4 (RSV strain A2) [4]
  OD value: 0.665 OD and 0.438 OD
FHCS-2 (RSV strain A2) [5]
  OD value: 1.95 OD and 1.48 OD
FHCS-1 (RSV strain A2) [6]
  OD value: 1.17 OD and 1.33 OD
FHCS-4 (RSV strain A2) [7]
  OD value: 0.005 OD and 0.006 OD
FHCS-2 (RSV strain A2) [8]
  OD value: 0.008 OD
FHCS-1 (RSV strain A2) [9]
  OD value: 0.004 OD and 0.007 OD
FHCS-4 (RSV strain A2) [10]
  OD value: 0.007 OD and 0.006 OD
FHCS-2 (RSV strain A2) [11]
  OD value: 0.017 OD and 0.02 OD
FHCS-1 (RSV strain A2) [12]
  OD value: 0.011 OD and 0.015 OD

## Synagis® (antibody)
FHCS-4 (RSV strain A2) [13]
  OD value: 0.033 OD and 0.024 OD
FHCS-2 (RSV strain A2) [14]
  OD value: 0.037 OD and 0.036 OD
FHCS-1 (RSV strain A2) [15]
  OD value: 0.017 OD and 0.018 OD
FHCS-4 (RSV strain A2) [16]
  OD value: 0.535 OD and 0.54 OD
FHCS-2 (RSV strain A2) [17]
  OD value: 0.78 OD and 0.704 OD
FHCS-1 (RSV strain A2) [18]
  OD value: 0.478 OD and 0.493 OD
FHCS-4 (RSV strain A2) [19]
  OD value: 0.05 OD and 0.048 OD
FHCS-2 (RSV strain A2) [20]
  OD value: 0.069 OD and 0.058 OD
FHCS-1 (RSV strain A2) [21]
  OD value: 0.055 OD and 0.062 OD
FHCS-4 (RSV strain A2) [22]
  OD value: 0.021 OD and 0.017 OD
FHCS-2 (RSV strain A2) [23]
  OD value: 0.028 OD and 0.032 OD
FHCS-4 (RSV strain A2) [24]
  OD value: 0.032 OD and 0.028 OD
FHCS-2 (RSV strain A2) [25]
  OD value: 0.109 OD and 0.097 OD
FHCS-1 (RSV strain A2) [26]
  OD value: 0.065 OD and 0.053 OD
FHCS-4 (RSV strain A2) [27]
  OD value: 0.008 OD
FHCS-2 (RSV strain A2) [28]
  OD value: 0.016 OD
